Test results: PMC12800425, “De novo cysteine biosynthesis in Pseudomonas aeruginosa: Characterization of the two main cysteine synthase isoforms” (iScience, 2025)

Columns and labels:
[1] = molecular target: T1, PA2709 (PaCysK, cysteine synthase A) (Pseudomonas aeruginosa, UniProt Q9I0D3); experiment: UV-vis absorption ([…] nm), near-UV circular dichroism, fluorescence; type: binding
T1 construct: gene cysK; recombinant, N-terminal His-tag with TEV cleavage site; homodimer
T1 sequence (Q9I0D3 1-324): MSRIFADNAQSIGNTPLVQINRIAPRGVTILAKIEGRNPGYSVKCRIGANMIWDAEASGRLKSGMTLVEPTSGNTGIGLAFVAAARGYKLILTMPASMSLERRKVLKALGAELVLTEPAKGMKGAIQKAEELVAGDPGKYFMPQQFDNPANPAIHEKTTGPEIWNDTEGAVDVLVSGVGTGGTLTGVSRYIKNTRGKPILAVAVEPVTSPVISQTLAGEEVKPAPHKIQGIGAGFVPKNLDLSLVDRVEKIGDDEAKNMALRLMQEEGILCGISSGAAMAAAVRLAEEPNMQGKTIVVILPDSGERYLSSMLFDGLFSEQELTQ

[2] = molecular target: T2, PA0932 (PaCysM, cysteine synthase B) (Pseudomonas aeruginosa, UniProt Q9I526); experiment: as above; type: binding
T2 construct: gene cysM; recombinant, N-terminal His-tag with TEV cleavage site; homodimer
T2 sequence (Q9I526 1-299): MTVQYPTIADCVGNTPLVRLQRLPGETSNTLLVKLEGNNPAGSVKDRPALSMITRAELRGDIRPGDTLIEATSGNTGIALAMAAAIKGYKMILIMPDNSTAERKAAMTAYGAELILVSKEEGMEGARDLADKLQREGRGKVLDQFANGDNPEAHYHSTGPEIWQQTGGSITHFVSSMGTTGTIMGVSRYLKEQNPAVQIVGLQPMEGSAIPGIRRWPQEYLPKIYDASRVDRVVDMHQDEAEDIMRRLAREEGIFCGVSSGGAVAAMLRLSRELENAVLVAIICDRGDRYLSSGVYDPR

[3] = molecular target: T2, PA0932 (PaCysM, cysteine synthase B); experiment: ninhydrin steady-state kinetics, global fit (Km […]); substrate inhibition Ki; type: biochemical
[4] = substrate: CC(=O)OC[C@H](N)C(=O)O; experiment: UV-vis absorption of PLP intermediates; steady-state kinetics, ninhydrin assay with thiosulfate (Km); type: biochemical, Pseudomonas aeruginosa; conditions: pyridoxal […]'-phosphate (PLP) active site; forms alpha-aminoacrylate intermediate with PLP; pH 7.0; 25.0 °C
[5] = molecular target: the molecule itself; experiment: SEC-MALS; Agilent GPC/SEC, AdvanceBio SEC column (300 Å), dual-angle light-scattering detector, BSA as calibrant; protein loaded at 1 mg/mL in buffer H (100 mM HEPES, pH 7.0), 20 °C, 1 mL/min
[6] = substrate: CC(=O)OC[C@H](N)C(=O)O; experiment: UV-vis absorption of PLP intermediates; steady-state kinetics with bisulfide electrode (Km); type: biochemical, Pseudomonas aeruginosa; conditions: pyridoxal […]'-phosphate (PLP) active site; forms alpha-aminoacrylate intermediate with PLP; pH 7.0; 25.0 °C

Molecule: Cc1ncc(COP(=O)(O)O)c(C=O)c1O [PLP, pyridoxal 5′-phosphate]
- UV-vis absorption (411 nm), near-UV circular dichroism, fluorescence [1]: absorption of the PLP cofactor bound as an internal aldimine to the catalytic lysine
- UV-vis absorption (413 nm), near-UV circular dichroism, fluorescence [2]: absorption of the PLP cofactor bound as an internal aldimine to the catalytic lysine

Molecule: O=S(O)(O)=S [thiosulfate]
- Ki [3]: 970 ± 830 µM

B1: PA0932 (PaCysM, cysteine synthase B) (Pseudomonas aeruginosa PAO1) (protein)
chain: T2 sequence (Q9I526 1-299)
notes: recombinant, N-terminal His-tag with TEV cleavage site; homodimer
- Km [4]: 2700 ± 600 µM
- kcat [4]: 209 ± 25 s⁻¹
- kcat/Km [4]: 79000 ± 20000 M⁻¹ s⁻¹

B2: Cysteine synthase B (PA0932, PaCysM) from Pseudomonas aeruginosa (enzyme, Pseudomonas aeruginosa PAO1, UniProt Q9I526 1-299, looked up)
chain: T2 sequence (Q9I526 1-299)
modifications: PLP cofactor bound as an internal aldimine to the catalytic lysine (Lys45, based on sequence alignments)
notes: Cysteine synthase B (CysM, PA0932) of P. aeruginosa PAO1; gene optimised for E. coli, synthesised and cloned between NdeI and BamHI into pET28a-TEV; calculated mass for a dimer 65 kDa; also called OASS-B; S-sulfocysteine synthase; not shown: His6, N-terminal, cleaved
- stoichiometry N [5]: 2

B3: PA2709 (PaCysK, cysteine synthase A) (Pseudomonas aeruginosa PAO1) (protein)
chain: T1 sequence (Q9I0D3 1-324)
notes: as for B1
- Km [6]: 1100 ± 100 µM
- kcat [6]: 102 ± 3 s⁻¹
- kcat/Km [6]: 90000 ± 9000 M⁻¹ s⁻¹

B4: Cysteine synthase A (PA2709, PaCysK) from Pseudomonas aeruginosa (enzyme, Pseudomonas aeruginosa PAO1, UniProt Q9I0D3 1-324, looked up)
chain: T1 sequence (Q9I0D3 1-324)
modifications: PLP cofactor bound as an internal aldimine to the catalytic lysine (Lys44, based on sequence alignments)
notes: Cysteine synthase A (CysK, PA2709) of P. aeruginosa PAO1; gene optimised for E. coli, synthesised and cloned between NdeI and BamHI into pET28a-TEV; calculated mass for a dimer 69 kDa; also called O-acetylserine sulfhydrylase; OASS-A; not shown: His6, N-terminal, cleaved
- stoichiometry N [5]: 2
